Patent US20180273623A1

Molecular target: EGFR (human) (UniProt P00533)
Test: flow cytometry on HCC-1954 cells, upper panel; staining antibody not named on the sheet or in the legend, assigned by analogy with FIG. 28A and 28C; open histogram shifted from the hatched control

MFI: 262
Substance: EGFR 528 (phb 704) (antibody)
